These results are taken from US20250145695A1 (AC IMMUNE, published 2025).

For one test, the target named is T1, soluble TDP-43 (human, UniProt Q13148 1-414).
T1 construct: also called soluble full-length TDP-43; FL TDP-43
The test is described as follows: SPR Biacore 8K, soluble TDP-43 immobilized on CM5, mAb injected, single-cycle kinetics. The protocol:
The instrument was primed with running buffer PBS-P+ and flow cells (Fc) 1 and 2 of channels 1-8 were activated with a fresh solution of EDC/NHS (Amine Coupling Kit, 1:1 ratio of both reagents, GE Healthcare Life Sciences, BR-1006-33) at 10 μL/min for 420 sec. Soluble TDP-43 (Selvita) was diluted in sodium acetate pH 4.5 to a final concentration of 5 μg/mL and injected for 900 sec with a flow rate of 5 μL/min on Fc 2. All flow cells were quenched with 1 M ethanol amine (GE Healthcare Life Sciences, BR-1006-33), at 10 μL/min for 420 sec. Immobilization levels after ethanolamine quenching were 680 RU on all eight channels. Prior to analysis, two Startup cycles were run. Increasing mAbs concentrations were injected in single-cycle kinetics ranging from 1.2 to 100 nM, prepared from a 3-fold serial dilution in running buffer, with a contact time of 300 sec and a dissociation time of 3600 sec at a flow rate of 30 μL/min. Each cycle was followed by one regeneration using 10 mM Glycine-HCl pH 1.7 with a contact time of 30 sec at 30 μL/min, followed by a stabilization period of 300 sec. Results obtained from single-cycle kinetics were double-referenced using the blank Fc 1 and buffer cycles and evaluated using Biacore 8K evaluation software using the 1:1 kinetic fit model with RI and global Rmax. The following kinetic parameters were obtained: association rate constant (ka), dissociation rate constant (kd), affinity constant (KD) and saturation response (Rmax).

Another test deals with T2, TP-51 peptide (human).
T2 construct: Synthetic peptide from Pepscan; also called synthetic TDP-43 peptide (TP-51)
T2 peptide: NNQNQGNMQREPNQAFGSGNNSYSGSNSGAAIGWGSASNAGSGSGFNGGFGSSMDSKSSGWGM
The test is described as follows: SPR Biacore 8K, mAb captured by anti-human antibody, TP-51 injected, single-cycle kinetics. How it is done: The instrument was primed with running buffer PBS-P+. Fc 1-2 of channels 1-8 (8K) were activated with a fresh solution of EDC/NHS (Amine Coupling Kit, 1:1 ratio of both reagents, GE Healthcare Life Sciences, BR-1006-33) at 10 μL/min for 420 sec and goat anti-human antibody (GE Healthcare Life Sciences, 29234600) was immobilized at 25 μg/mL in 10 mM sodium acetate pH 5 for 420 sec. Next, all Fc were quenched with 1 M ethanol amine (GE Healthcare Life Sciences, BR-1006-33), for 420 sec. Any non-covalently bound antibodies were removed by two regenerations with 10 mM Glycine-HCl pH 1.7 for 30 sec. Immobilization levels were evaluated following ethanolamine quenching (10000 RU for all channels).
Each cycle started with non-covalent capture of humanized variants which were diluted in running buffer to a final concentration of 2 μg/mL and injected for 60 sec with a flow rate of 10 μL/min. TDP-43 mAbs were captured on channels 1-8, leaving Fc 1 as a blank Fc. Capture levels were evaluated following a 120 sec stabilization period after each mAb injection and ranged from 300-500 RU.
TP-51 consists of amino acids 352-414 of TDP-43 (SEQ ID NO: 1). Injections of TP-51 peptide (Pepscan) were performed in single-cycle kinetics with increasing concentrations ranging from 1.2-100 nM prepared from serial 3-fold dilutions. Injections were performed with contact times of 300 sec/injection at a flow rate of 25 μL/min. A dissociation phase of 3600 sec followed the final injection. Sensor surface was regenerated by one injection of 10 mM Glycine-HCl pH 1.7 at a flow rate of 10 μL/min for 120 sec, followed by a stabilization period of 300 sec. Results obtained from single-cycle kinetics were double-referenced using the blank Fc 1 and buffer cycles and evaluated by Biacore 8K evaluation software with 1:1 kinetic fit model with RI and global Rmax. The following kinetic parameters were obtained: association rate constant (ka), dissociation rate constant (kd), affinity constant (KD) and saturation response (Rmax).
Background: SPR reads the build-up and loss of mass on a sensor chip optically.

Test [1] has as its target T3, human TDP-43 in CSF of a healthy donor (human, UniProt Q13148 1-414, limits assumed).
T3 construct: also called TDP-43 in human CSF
The test is described as follows: SIMOA-based target engagement assay, unbound TDP-43 in human CSF pre-incubated with increasing antibody.

Where “and” joins values, the source holds several entries; their conditions need not be identical. Identical values can stand only once.

T1 sequence (Q13148 whole entry): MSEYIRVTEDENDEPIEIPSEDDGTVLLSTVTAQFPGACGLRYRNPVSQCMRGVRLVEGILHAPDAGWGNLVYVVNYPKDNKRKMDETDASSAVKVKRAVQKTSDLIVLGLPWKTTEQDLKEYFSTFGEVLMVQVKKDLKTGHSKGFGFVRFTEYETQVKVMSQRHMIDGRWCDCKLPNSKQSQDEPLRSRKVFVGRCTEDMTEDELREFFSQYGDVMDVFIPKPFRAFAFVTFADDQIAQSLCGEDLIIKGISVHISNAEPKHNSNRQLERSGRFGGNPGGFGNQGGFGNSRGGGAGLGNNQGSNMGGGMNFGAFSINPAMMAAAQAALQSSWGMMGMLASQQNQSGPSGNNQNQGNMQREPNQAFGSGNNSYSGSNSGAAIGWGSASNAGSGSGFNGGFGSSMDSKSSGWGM

B1: ACI-7069-633B12-Ab1 (antibody, V domains shown)
VH: EVQLQQSGPELVKPGASVKISCKTSGFTFTEYSMHWVKQSHGKSLEWIGGINPNNGGTSYNQKFKGKATLTVDKSSSTAYMELRSLTSEDSAVYYCARESWGQGTTLTVSS
VL: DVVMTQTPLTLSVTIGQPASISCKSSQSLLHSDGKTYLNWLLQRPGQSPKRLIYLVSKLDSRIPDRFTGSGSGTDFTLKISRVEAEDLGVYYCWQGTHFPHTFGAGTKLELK
notes: also called murine parental antibody
Take B1: in the test with soluble TDP-43, binding was characterised by a dissociation constant (Kd) of 0.328 nM; the koff (commonly a measure of how fast the partners let go of each other) amounted to 1.7e-05 s⁻¹; the on-rate (kon) (in general, the rate constant with which the complex forms) is 55000 M⁻¹ s⁻¹. Besides, in the test with TP-51 peptide, the Kd – broadly, the equilibrium constant for the complex coming apart – turned out to be 1.5 nM; the koff worked out at 9.8e-05 s⁻¹; the on-rate (kon) came out at 67000 M⁻¹ s⁻¹.

B2: hACI-7069-633B12-Ab1_H33L24 (antibody, V domains shown)
VH: EVQLVQSGAEVKKPGATVKISCKVSGFTFTEYSMHWVQQAPGKGLEWMGGINPNNGGTSYNQKFQGRVTITADTSTDTAYMELSSLRSEDTAVYYCARESWGQGTTVTVSS
VL: DIVMTQSPLSLPVTPGEPASISCKSSQSLLHSDGKTYLNWLLQKPGQSPQRLIYLVSKLDSRVPDRFSGSGSGTDFTLKISRVEAEDVGVYYCWQGTHFPHTFGQGTKLEIK
For B2, in the test with soluble TDP-43, the affinity, expressed as Kd, was 0.471 nM; the koff was 1.3e-05 s⁻¹; the kon came to 30000 M⁻¹ s⁻¹. In addition, in the test with TP-51 peptide, the Kd worked out at 2.2 nM, the koff came to 0.00015 s⁻¹ and the kon was determined as 70000 M⁻¹ s⁻¹.

B3: hACI-7069-633B12-Ab1_H28L22 (antibody, V domains shown)
VH: EVQLVQSGAEVKKPGATVKISCKVSGFTFTEYSMHWVQQAPGKGLEWMGGINPNNGGTSYNQKFKGRVTITADTSTDTAYMELSSLRSEDTAVYYCARESWGQGTTVTVSS
VL: DIVMTQSPLSLPVTPGEPASISCKSSQSLLHSDGKTYLNWLLQKPGQSPKRLIYLVSKLDSRVPDRFSGSGSGTDFTLKISRVEAEDVGVYYCWQGTHFPHTFGQGTKLEIK
Take B3: in the test with soluble TDP-43, the equilibrium dissociation constant (Kd) was found to be 1.16 nM, the koff is 3.4e-05 s⁻¹ and the kon amounted to 29000 M⁻¹ s⁻¹. In the test with TP-51 peptide, this molecule returned a Kd of 3.5 nM, a koff of 0.0002 s⁻¹ and a kon of 58000 M⁻¹ s⁻¹.

B4: hACI-7069-633B12-Ab1_H28L24 (antibody, V domains shown)
VH: EVQLVQSGAEVKKPGATVKISCKVSGFTFTEYSMHWVQQAPGKGLEWMGGINPNNGGTSYNQKFKGRVTITADTSTDTAYMELSSLRSEDTAVYYCARESWGQGTTVTVSS
VL: DIVMTQSPLSLPVTPGEPASISCKSSQSLLHSDGKTYLNWLLQKPGQSPQRLIYLVSKLDSRVPDRFSGSGSGTDFTLKISRVEAEDVGVYYCWQGTHFPHTFGQGTKLEIK
In the test with soluble TDP-43, B4 returned a Kd of 0.531 nM, a koff of 1.7e-05 s⁻¹ and a kon of 37000 M⁻¹ s⁻¹. In the test with TP-51 peptide, this molecule showed an equilibrium dissociation constant (Kd) of 2 nM, a koff of 0.00013 s⁻¹ and an association rate constant (kon) of 66000 M⁻¹ s⁻¹.

B5: hACI-7069-633B12-Ab1_H32L27 (antibody, V domains shown)
VH: EVQLVQSGAEVKKPGATVKISCKVSGFTFTEYSMHWVQQAPGKGLEWMGGINPQNAGTSYNQKFQGRVTITADTSTDTAYMELSSLRSEDTAVYYCARESWGQGTTVTVSS
VL: DIVMTQSPLSLPVTPGEPASISCKSSQSLLHSDGKTYLNWLLQKPGQSPQRLIYLVSKLDSRVPDRFSGSGSGTDFTLKISRVEAEDVGVYYCFQGTHFPHTFGQGTKLEIK
Take B5: in the test with soluble TDP-43, binding was put at a Kd of 0.143 nM, the koff turned out to be 5.2e-06 s⁻¹ and the kon was determined as 36000 M⁻¹ s⁻¹. In the test with TP-51 peptide, this molecule yielded a Kd of 1 nM, an off-rate constant (koff) of 0.00012 s⁻¹ and an association rate constant (kon) of 120000 M⁻¹ s⁻¹.

B6: hACI-7069-633B12-Ab1_H32L26 (antibody, V domains shown)
VH: EVQLVQSGAEVKKPGATVKISCKVSGFTFTEYSMHWVQQAPGKGLEWMGGINPQNAGTSYNQKFQGRVTITADTSTDTAYMELSSLRSEDTAVYYCARESWGQGTTVTVSS
VL: DIVMTQSPLSLPVTPGEPASISCKSSQSLLHSDAKTYLNWLLQKPGQSPQRLIYLVSKLDSRVPDRFSGSGSGTDFTLKISRVEAEDVGVYYCFQGTHFPHTFGQGTKLEIK
In the test with soluble TDP-43, B6 yielded a Kd of 0.563 nM, a koff of 1.7e-05 s⁻¹ and a kon of 33000 M⁻¹ s⁻¹. In the test with TP-51 peptide, this molecule had an equilibrium dissociation constant (Kd) of 1.4 nM, a koff of 0.00016 s⁻¹ and an association rate constant (kon) of 120000 M⁻¹ s⁻¹.

B7: hACI-7069-633B12-Ab1_H33L26 (antibody, V domains shown)
VH: EVQLVQSGAEVKKPGATVKISCKVSGFTFTEYSMHWVQQAPGKGLEWMGGINPNNGGTSYNQKFQGRVTITADTSTDTAYMELSSLRSEDTAVYYCARESWGQGTTVTVSS
VL: DIVMTQSPLSLPVTPGEPASISCKSSQSLLHSDAKTYLNWLLQKPGQSPQRLIYLVSKLDSRVPDRFSGSGSGTDFTLKISRVEAEDVGVYYCFQGTHFPHTFGQGTKLEIK
For B7, in the test with soluble TDP-43, the dissociation constant Kd was determined as 0.22 nM, the koff turned out to be 9e-06 s⁻¹ and the kon came to 43000 M⁻¹ s⁻¹. In the test with TP-51 peptide, this molecule gave a Kd of 1.6 nM, a koff of 0.00029 s⁻¹ and a kon of 160000 M⁻¹ s⁻¹.

B8: hACI-7069-633B12-Ab1_H28L23 (antibody, V domains shown)
VH: EVQLVQSGAEVKKPGATVKISCKVSGFTFTEYSMHWVQQAPGKGLEWMGGINPNNGGTSYNQKFKGRVTITADTSTDTAYMELSSLRSEDTAVYYCARESWGQGTTVTVSS
VL: DVVMTQSPLSLPVTPGEPASISCKSSQSLLHSDGKTYLNWLLQKPGQSPQRLIYLVSKLDSRVPDRFSGSGSGTDFTLKISRVEAEDVGVYYCWQGTHFPHTFGQGTKLEIK
As to B8, in the test with soluble TDP-43, the Kd is 0.806 nM, the off-rate (koff) was determined as 2.6e-05 s⁻¹ and the association rate constant (kon) stood at 32000 M⁻¹ s⁻¹. For the same molecule, in the test with TP-51 peptide, binding was put at a Kd of 1.9 nM, the koff was 0.00013 s⁻¹ and the kon was found to be 65000 M⁻¹ s⁻¹.

B9: hACI-7069-633B12-Ab1_H33L27 (antibody, V domains shown)
VH: EVQLVQSGAEVKKPGATVKISCKVSGFTFTEYSMHWVQQAPGKGLEWMGGINPNNGGTSYNQKFQGRVTITADTSTDTAYMELSSLRSEDTAVYYCARESWGQGTTVTVSS
VL: DIVMTQSPLSLPVTPGEPASISCKSSQSLLHSDGKTYLNWLLQKPGQSPQRLIYLVSKLDSRVPDRFSGSGSGTDFTLKISRVEAEDVGVYYCFQGTHFPHTFGQGTKLEIK
In the test with soluble TDP-43, B9 yielded a dissociation constant Kd of 0.126 nM, a koff of 6.5e-06 s⁻¹ and an association rate constant (kon) of 52000 M⁻¹ s⁻¹. Also, in the test with TP-51 peptide, binding was characterised by a dissociation constant (Kd) of 0.8 nM, the koff stood at 0.00012 s⁻¹ and the association rate constant (kon) stood at 150000 M⁻¹ s⁻¹. The 50% effective concentration (EC50) (as a rule, the midpoint of the concentration-response curve) in test [1] is 0.0356 µg/mL and 0.237 nM.

B10: hACI-7069-633B12-Ab1_H27L23 (antibody, V domains shown)
VH: EVQLVQSGAEVKKPGATVKISCKVSGFTFTEYSMHWVQQAPGKGLEWMGGINPNNGGTSYNQKFKGRVTITVDTSTDTAYMELSSLRSEDTAVYYCARESWGQGTTVTVSS
VL: DVVMTQSPLSLPVTPGEPASISCKSSQSLLHSDGKTYLNWLLQKPGQSPQRLIYLVSKLDSRVPDRFSGSGSGTDFTLKISRVEAEDVGVYYCWQGTHFPHTFGQGTKLEIK
With B10, in the test with soluble TDP-43, binding was put at a Kd of 0.925 nM, the koff amounted to 2.2e-05 s⁻¹ and the kon was determined as 24000 M⁻¹ s⁻¹. Further, in the test with TP-51 peptide, the Kd was found to be 3.3 nM, the off-rate constant (koff) is 0.00014 s⁻¹ and the on-rate constant (kon) is 42000 M⁻¹ s⁻¹.

B11: hACI-7069-633B12-Ab1_H32L24 (antibody, V domains shown)
VH: EVQLVQSGAEVKKPGATVKISCKVSGFTFTEYSMHWVQQAPGKGLEWMGGINPQNAGTSYNQKFQGRVTITADTSTDTAYMELSSLRSEDTAVYYCARESWGQGTTVTVSS
VL: DIVMTQSPLSLPVTPGEPASISCKSSQSLLHSDGKTYLNWLLQKPGQSPQRLIYLVSKLDSRVPDRFSGSGSGTDFTLKISRVEAEDVGVYYCWQGTHFPHTFGQGTKLEIK
As to B11, in the test with soluble TDP-43, the equilibrium dissociation constant (Kd) turned out to be 0.716 nM, the koff was 1.5e-05 s⁻¹ and the kon worked out at 24000 M⁻¹ s⁻¹. In the test with TP-51 peptide, this molecule had a dissociation constant Kd of 2 nM, a koff of 0.00012 s⁻¹ and a kon of 64000 M⁻¹ s⁻¹.
